Measurements: the supplement of paper PMC9233669
Fewer inactive variants are shown than the library holds.

Assays:
biotinyl-Phe-oxazolone = assay: self-aminoacylation, catalytic enhancement (BFO) (fold over background); higher = more active; k-Seq, kA / k0A0; sequences stand for … in GGGAAUGGAUCCACAUCUACGAAUUC…UUCACUGCAGACUUGACGAAGCUG
Procedure, shortened: (§1)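 Catalytic enhancement equals the median kA over the uncatalyzed rate, the latter read from the low-activity peak of a bimodal Gaussian fit. Values of kA came from fitting each sequence's fraction reacted to a pseudo-first-order model, with 1000 bootstraps. Reacted RNA was captured with streptavidin and quantified by triplicate qPCR and Illumina sequencing after 90 minutes at room temperature with 2–1250 μM biotinyl-aminoacyl-oxazolone and 0.43 μM mutagenized RNA pools bearing a 21-nt variable region.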

biotinyl-Ile-oxazolone = assay: self-aminoacylation, catalytic enhancement (BIO) (fold over background); higher = more active; k-Seq, kA / k0A0; sequences stand for … in GGGAAUGGAUCCACAUCUACGAAUUC…UUCACUGCAGACUUGACGAAGCUG
Procedure, shortened: as §1

biotinyl-Met-oxazolone = assay: self-aminoacylation, catalytic enhancement (BMO) (fold over background); higher = more active; k-Seq, kA / k0A0; sequences stand for … in GGGAAUGGAUCCACAUCUACGAAUUC…UUCACUGCAGACUUGACGAAGCUG
Procedure, shortened: as §1

biotinyl-Val-oxazolone = assay: self-aminoacylation, catalytic enhancement (BVO) (fold over background); higher = more active; k-Seq, kA / k0A0; sequences stand for … in GGGAAUGGAUCCACAUCUACGAAUUC…UUCACUGCAGACUUGACGAAGCUG
Procedure, shortened: as §1

biotinyl-Leu-oxazolone = assay: self-aminoacylation, catalytic enhancement (BLO) (fold over background); higher = more active; k-Seq, kA / k0A0; sequences stand for … in GGGAAUGGAUCCACAUCUACGAAUUC…UUCACUGCAGACUUGACGAAGCUG
Procedure, shortened: as §1

biotinyl-Trp-oxazolone = assay: self-aminoacylation, catalytic enhancement (BWO) (fold over background); higher = more active; k-Seq, kA / k0A0; sequences stand for … in GGGAAUGGAUCCACAUCUACGAAUUC…UUCACUGCAGACUUGACGAAGCUG
Procedure, shortened: as §1

Sequence | self-aminoacylation (biotinyl-Phe-oxazolone) | self-aminoacylation (biotinyl-Ile-oxazolone) | self-aminoacylation (biotinyl-Met-oxazolone) | self-aminoacylation (biotinyl-Val-oxazolone) | self-aminoacylation (biotinyl-Leu-oxazolone) | self-aminoacylation (biotinyl-Trp-oxazolone)
AUUCACCGAGGUCAUCGGGUU [Fam2.2 aminoacylation ribozyme variant] | 9.59 | 2.26 | 2.61 | 2.84 | 3.15 | 2.7
AUUCACCGAGUUCAUCGGGUG [Fam2.2 aminoacylation ribozyme variant] | 37.1 | 3.56 | 4.92 | 3.14 | 5.07 | 4.3
AUUCACCUAAGUCAUCCGGUG [Fam2.2 aminoacylation ribozyme variant] | 63.4 | 5.54 | 9.71 | 5.61 | 12.2 | 10.3
AUUCACCUAAGUCAUCGAGUG [Fam2.2 aminoacylation ribozyme variant] | 22.9 | 3.92 | 5.75 | 3.78 | 7.69 | 5.16
AUUCACCUAAGUCAUCGGGGG [Fam2.2 aminoacylation ribozyme variant] | 10.9 | 1.92 | 2.48 | 1.76 | 2.5 | 2.27
AUUCACCUAAGUCAUCGGGUG [Fam2.2 aminoacylation ribozyme variant] | 74.2 | 5.75 | 9.66 | 5.58 | 12.8 | 8.93
AUUCACCUAAGUCAUCUGGUG [Fam2.2 aminoacylation ribozyme variant] | 16.6 | 2 | 2.52 | 1.86 | 3.72 | 2.98
AUUCACCUAAGUCAUGGGGUG [Fam2.2 aminoacylation ribozyme variant] | 33.4 | 3.71 | 5.16 | 3.47 | 7.26 | 5.16
AUUCACCUAAGUCCUCGGGUG [Fam2.2 aminoacylation ribozyme variant] | 45.8 | 4.5 | 7.52 | 4.11 | 10.1 | 6.98
AUUCACCUACAUCAUCGGGUG [Fam2.2 aminoacylation ribozyme variant] | 22.1 | 2.19 | 3.63 | 2.06 | 3.91 | 3.07
AUUCACCUACGUCACCGGGUG [Fam2.2 aminoacylation ribozyme variant] | 36.4 | 2.72 | 4.43 | 2.84 | 5.96 | 3.84
AUUCACCUACGUCAUCGGGAG [Fam2.2 aminoacylation ribozyme variant] | 0.516 | 0.803 | 1.23 | 0.861 | 1.07 | 0.502
AUUCACCUACGUCAUCGGUUG [Fam2.2 aminoacylation ribozyme variant] | 0.512 | 0.789 | 0.738 | 1.05 | 0.647 | 0.436
AUUCACCUAGAACAUCGGGUG [Fam2.2 aminoacylation ribozyme variant] | 16.8 | 2.39 | 2.73 | 2.47 | 2.88 | 3.56
AUUCACCUAGACCAUCGGGUG [Fam2.2 aminoacylation ribozyme variant] | 22.4 | 2.48 | 4.26 | 3.62 | 5.27 | 3.81
AUUCACCUAGAUCACCGGGUG [Fam2.2 aminoacylation ribozyme variant] | 11.5 | 2.42 | 2.76 | 2.55 | 3.69 | 2.86
AUUCACCUAGAUCAUCGGGGG [Fam2.2 aminoacylation ribozyme variant] | 8.71 | 1.79 | 2.29 | 1.91 | 2.08 | 2.13
AUUCACCUAGCUAAUCGGGUG [Fam2.2 aminoacylation ribozyme variant] | 4.49 | 1.6 | 1.93 | 1.62 | 2.05 | 1.85
AUUCACCUAGCUCAUAGGGUG [Fam2.2 aminoacylation ribozyme variant] | 1.04 | 1.08 | 1.24 | 1.13 | 1.37 | 0.658
AUUCACCUAGCUCAUCGGAUG [Fam2.2 aminoacylation ribozyme variant] | 0.472 | 0.779 | 0.609 | 0.82 | 0.772 | 0.452
AUUCACCUAGGACAGCGGGUG [Fam2.2 aminoacylation ribozyme variant] | 15.1 | 2.23 | 2.49 | 2.21 | 2.58 | 2
AUUCACCUAGGACAUCGGAUG [Fam2.2 aminoacylation ribozyme variant] | 0.553 | 0.988 | 1.06 | 1.29 | 0.999 | 0.529
AUUCACCUAGGACAUCGGGCG [Fam2.2 aminoacylation ribozyme variant] | 15.1 | 2.31 | 2.2 | 2.38 | 2.79 | 2.27
AUUCACCUAGGACAUCGGUUG [Fam2.2 aminoacylation ribozyme variant] | 2.89 | 0.888 | 0.919 | 1.03 | 1.28 | 0.663
AUUCACCUAGGACAUGGGGUG [Fam2.2 aminoacylation ribozyme variant] | 42.9 | 3.4 | 5.06 | 3.42 | 7.25 | 5.18
AUUCACCUAGGACCUCGGGUG [Fam2.2 aminoacylation ribozyme variant] | 20.7 | 2.77 | 3.6 | 2.63 | 3.69 | 3.54

Sequence | self-aminoacylation (biotinyl-Phe-oxazolone) | self-aminoacylation (biotinyl-Ile-oxazolone) | self-aminoacylation (biotinyl-Met-oxazolone) | self-aminoacylation (biotinyl-Val-oxazolone) | self-aminoacylation (biotinyl-Leu-oxazolone) | self-aminoacylation (biotinyl-Trp-oxazolone)
AUUCACCUAGGCCAUAGGGUG [Fam2.2 aminoacylation ribozyme variant] | 4.48 | 2.09 | 2.45 | 2.11 | 2.54 | 2.58
AUUCACCUAGGCCAUCGGGAG [Fam2.2 aminoacylation ribozyme variant] | 0.861 | 1.1 | 1.69 | 1.39 | 0.965 | 1.05
AUUCACCUAGGCCAUCGGGUG [Fam2.2 aminoacylation ribozyme variant] | 28.6 | 3.04 | 4.47 | 3.45 | 5.51 | 4.09
AUUCACCUAGGCCAUCGUGUG [Fam2.2 aminoacylation ribozyme variant] | 2.6 | 0.998 | 0.898 | 0.966 | 0.946 | 0.88
AUUCACCUAGGGCAGCGGGUG [Fam2.2 aminoacylation ribozyme variant] | 39.8 | 5.78 | 7.29 | 4.76 | 7.39 | 7.98
AUUCACCUAGGGCAUCGGAUG [Fam2.2 aminoacylation ribozyme variant] | 0.411 | 0.923 | 0.506 | 0.873 | 0.894 | 0.646
AUUCACCUAGGGCAUCGGCUG [Fam2.2 aminoacylation ribozyme variant] | 7.35 | 1.75 | 2.03 | 2.01 | 2.42 | 1.64
AUUCACCUAGGGCAUCGGGCG [Fam2.2 aminoacylation ribozyme variant] | 15.7 | 3.54 | 3.47 | 4.35 | 4.74 | 2.7
AUUCACCUAGGGGAUCGGGUG [Fam2.2 aminoacylation ribozyme variant] | 32 | 3.44 | 4.34 | 3.26 | 6.82 | 4.28
AUUCACCUAGGUAAUCGGGUG [Fam2.2 aminoacylation ribozyme variant] | 17.5 | 1.85 | 2.8 | 1.85 | 3.64 | 2.81
AUUCACCUAGGUAAUGGGGUG [Fam2.2 aminoacylation ribozyme variant] | 27.6 | 2.4 | 5.17 | 2.58 | 6.27 | 4.53
AUUCACCUAGGUCAACGCGUG [Fam2.2 aminoacylation ribozyme variant] | 43.4 | 3.59 | 5.53 | 3.6 | 7.6 | 5.44
AUUCACCUAGGUCAACGGAUG [Fam2.2 aminoacylation ribozyme variant] | 0.356 | 0.758 | 0.667 | 0.726 | 0.549 | 0.259
AUUCACCUAGGUCAACGGGUU [Fam2.2 aminoacylation ribozyme variant] | 0.45 | 1.22 | 1.33 | 1.16 | 1.26 | 0.946
AUUCACCUAGGUCACCAGGUG [Fam2.2 aminoacylation ribozyme variant] | 1.24 | 1.51 | 1.51 | 1.49 | 1.61 | 1.64
AUUCACCUAGGUCACCGGGUU [Fam2.2 aminoacylation ribozyme variant] | 10 | 1.77 | 2.18 | 1.98 | 2.59 | 3.01
AUUCACCUAGGUCACGGGGUG [Fam2.2 aminoacylation ribozyme variant] | 22.1 | 2.98 | 4.08 | 3.03 | 5.76 | 4.51
AUUCACCUAGGUCAGAGGGUG [Fam2.2 aminoacylation ribozyme variant] | 4.38 | 1.1 | 1.36 | 1.14 | 1.49 | 1.68
AUUCACCUAGGUCAGCGCGUG [Fam2.2 aminoacylation ribozyme variant] | 71.2 | 6.84 | 10.9 | 6.75 | 14.9 | 11
AUUCACCUAGGUCAGCGGGUA [Fam2.2 aminoacylation ribozyme variant] | 10.5 | 2.12 | 2.18 | 2.08 | 3.01 | 2.05
AUUCACCUAGGUCAUAGUGUG [Fam2.2 aminoacylation ribozyme variant] | 0.512 | 0.658 | 0.625 | 0.727 | 0.67 | 0.453
AUUCACCUAGGUCAUCCCGUG [Fam2.2 aminoacylation ribozyme variant] | 26.7 | 3.32 | 4.13 | 3.25 | 4.87 | 5.25
AUUCACCUAGGUCAUCCGAUG [Fam2.2 aminoacylation ribozyme variant] | 2.62 | 1.43 | 1.54 | 1.95 | 1.24 | 1.09
AUUCACCUAGGUCAUCCGCUG [Fam2.2 aminoacylation ribozyme variant] | 9.5 | 2.23 | 1.73 | 1.89 | 2.54 | 1.25
AUUCACCUAGGUCAUCGAGUG [Fam2.2 aminoacylation ribozyme variant] | 35.7 | 10.8 | 14.3 | 8.76 | 19.3 | 8.05
